{
  "source": "patent US20210292433A1",
  "about": "(MUSC FOUNDATION FOR RESEARCH DEVELOPMENT, published 2021)",
  "target": "T1, human GARP (Glycoprotein A Repetitions Predominant, LRRC32) stably expressed on Pre-B (70Z/3) cells (human, UniProt Q14392 20-662)",
  "T1 construct": "whole, on cells; also called hGARP; huGARP",
  "T1 sequence (looked up)": "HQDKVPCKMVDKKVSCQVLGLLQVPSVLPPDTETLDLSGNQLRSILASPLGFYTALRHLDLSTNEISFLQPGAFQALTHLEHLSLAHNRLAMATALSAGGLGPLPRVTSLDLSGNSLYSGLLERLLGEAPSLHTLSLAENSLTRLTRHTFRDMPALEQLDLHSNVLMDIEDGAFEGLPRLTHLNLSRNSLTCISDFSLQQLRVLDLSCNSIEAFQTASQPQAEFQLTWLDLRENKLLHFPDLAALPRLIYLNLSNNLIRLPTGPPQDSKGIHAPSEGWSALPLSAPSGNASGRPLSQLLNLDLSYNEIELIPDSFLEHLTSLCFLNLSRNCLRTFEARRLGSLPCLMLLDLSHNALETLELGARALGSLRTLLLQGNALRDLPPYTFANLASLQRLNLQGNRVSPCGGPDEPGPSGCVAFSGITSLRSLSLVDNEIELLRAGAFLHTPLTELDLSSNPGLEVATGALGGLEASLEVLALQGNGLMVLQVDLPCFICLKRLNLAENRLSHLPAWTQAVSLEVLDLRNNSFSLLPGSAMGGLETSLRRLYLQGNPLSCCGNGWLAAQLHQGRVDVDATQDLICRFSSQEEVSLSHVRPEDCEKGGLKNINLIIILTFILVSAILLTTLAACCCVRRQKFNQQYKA",
  "assay": "flow cytometry on Pre-B cells stably expressing human GARP (FIG. 7A)",
  "data": [
    {"binder": "5C5 anti-GARP monoclonal antibody (antibody, V domains shown, Mouse hybridoma mAb; also called 5C5 (IgG2a)) VH: EVKLVESGGGSVKPGGSLKLSCAASGFTFSNYVMSWVRQTPEKRLEWVATISSGGSYTYYPDSVKGRLTISRDNAKNTLYLQMSSLRSEDTAMYYCARGYDNGDYVMDYWGQGTSVTVSS VL: DIVLTQSPASLAVSLGQRATISCRASESVDTYGNSFMHWYQQIPGQPPKVLIYRASNLESGIPARFSGSGSRTDFTLTINPVEAGDVATYYCQQTNEHPPTFGGGTKLEIK", "values": [
      {"measurement": "binding result", "result": "binds"}
    ]}
  ]
}
